Assay results reported in patent US20200347147A1 (Hoffmann-La Roche, published 2020).

What was measured:
[1] = biological target: T1, human Carcinoembryonic antigen (CEA), also known as Carcinoembryonic antigen-related cell adhesion molecule 5 (human, UniProt P06731 35-685); experiment: flow cytometry on LS-174T cells (~40 700 CEA binding sites)
T1 construct: whole, on cells; Expressed on the tumor cell lines MKN45, LS174T, HT29 and others, and on transiently transfected HEK293T cells; also called human CEA; CEACAM5
T1 sequence (looked up): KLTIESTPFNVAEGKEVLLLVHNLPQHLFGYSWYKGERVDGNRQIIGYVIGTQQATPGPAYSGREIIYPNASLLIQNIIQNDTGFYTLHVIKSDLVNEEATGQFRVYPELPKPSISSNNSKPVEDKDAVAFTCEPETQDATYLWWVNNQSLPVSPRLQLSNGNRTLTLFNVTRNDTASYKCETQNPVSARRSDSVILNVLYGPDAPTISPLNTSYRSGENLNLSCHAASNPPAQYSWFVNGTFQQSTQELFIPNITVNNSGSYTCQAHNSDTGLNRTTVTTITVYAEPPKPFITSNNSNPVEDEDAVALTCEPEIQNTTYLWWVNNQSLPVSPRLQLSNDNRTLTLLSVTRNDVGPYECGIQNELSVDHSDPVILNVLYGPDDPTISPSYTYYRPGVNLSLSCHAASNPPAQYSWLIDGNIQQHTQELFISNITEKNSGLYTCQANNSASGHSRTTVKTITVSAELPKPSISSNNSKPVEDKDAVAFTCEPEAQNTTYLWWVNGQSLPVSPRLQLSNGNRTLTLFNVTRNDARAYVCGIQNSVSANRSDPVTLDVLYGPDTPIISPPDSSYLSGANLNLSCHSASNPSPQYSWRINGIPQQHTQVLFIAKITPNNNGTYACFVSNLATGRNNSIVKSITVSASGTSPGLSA
Protocol: (§1) The binding of the TCB molecules used in Example 5A and B was tested on different CEA-expressing tumor and CD3-expressing Jurkat (DSMZ ACC 282) cells.
(§2) Briefly, cells were harvested, counted, checked for viability and re-suspended at 2×10⁶ cells/ml in FACS buffer (100 μl PBS 0.1% BSA). 100 μl of cell suspension (containing 0.2×10⁶ cells) were incubated in round-bottom 96-well plate for 30 min at 4° C. with increasing concentrations of the CEA IgG (31 pM-500 nM), washed twice with cold PBS 0.1% BSA, re-incubated for further 30 min at 4° C. with the FITC-conjugated AffiniPure F(ab′)2 Fragment goat anti-human IgG Fcg Fragment Specific secondary antibody (Jackson Immuno Research Lab FITC #109-096-008, 1:40 pre-diluted in PBS 0.1% BSA), washed twice with cold PBS 0.1% BSA and fixed using 150 μl PBS 0.1% BSA, containing 2% PFA and incubation at 4° C. for 20 min. Thereafter, cells were washed once for 8 min at 400×g, 4° C. and finally re-suspended in 150 μl FACS buffer for the FACS measurement. Fluorescence was measured using Miltenyi MACSQuant.

[2] = biological target: T1, human Carcinoembryonic antigen (CEA), …; experiment: flow cytometry on MKN45 cells (~513 300 CEA binding sites)
Protocol: as §1, §2

[3] = biological target: T1, human Carcinoembryonic antigen (CEA), …; experiment: cell-based or functional assay
[4] = biological target: T1, human Carcinoembryonic antigen (CEA), …; experiment: flow cytometry on CEA-expressing MKN45 cells, PE anti-human Fc secondary
Protocol: Briefly, cells were harvested, counted, checked for viability and re-suspended at 2×10⁶ cells/ml in FACS buffer (100 μl PBS 0.1% BSA). […] Binding curves and EC50 values were obtained and calculated using GraphPadPrism5 (FIG. 2, binding to MKN45 cells).

human CEACAM1 = biological target: T2, human CEACAM1 (human, UniProt P13688 35-526); experiment: flow cytometry on transient HEK293T transfectants
T2 construct: whole, on cells
T2 sequence (looked up): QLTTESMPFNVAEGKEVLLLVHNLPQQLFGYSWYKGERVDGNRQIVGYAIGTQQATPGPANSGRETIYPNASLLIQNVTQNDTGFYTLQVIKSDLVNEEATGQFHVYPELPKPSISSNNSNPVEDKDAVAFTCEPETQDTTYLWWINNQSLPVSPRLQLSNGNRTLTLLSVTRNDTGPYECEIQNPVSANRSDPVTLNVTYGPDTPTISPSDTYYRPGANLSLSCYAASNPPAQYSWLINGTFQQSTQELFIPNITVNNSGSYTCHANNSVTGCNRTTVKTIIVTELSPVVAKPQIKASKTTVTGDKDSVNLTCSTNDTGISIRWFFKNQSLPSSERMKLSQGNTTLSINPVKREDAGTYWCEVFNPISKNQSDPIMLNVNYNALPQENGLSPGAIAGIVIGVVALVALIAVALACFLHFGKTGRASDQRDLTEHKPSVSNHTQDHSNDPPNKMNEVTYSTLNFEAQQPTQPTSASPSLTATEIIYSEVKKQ
Protocol: (§3) Briefly, cells were harvested, counted, checked for viability and re-suspended at 1×10⁶ cells/ml in FACS buffer (100 μl PBS 0.1% BSA). 100 μl of the cell suspension (containing 0.1×10⁶ cells) were plated iton round-bottom 96-well plates and washed twice with 150 μl of cold PBS. Cells were stained for 30 min at 4° C., using a 1:5000 pre-diluted suspension of the fixable viability dye eFluor660 (eBioscience, #65-0864-14) in PBS. […] Cells were washed twice with cold PBS 0.1% BSA, re-incubated for further 30 min at 4° C. with the FITC-conjugated AffiniPure F(ab′)2 Fragment goat anti-human IgG Fcg Fragment Specific secondary antibody (Jackson Immuno Research Lab FITC #109-096-098, 1:50 pre-diluted in PBS 0.1% BSA), washed twice with cold PBS 0.1% BSA and fixed using 150 μl PBS 0.1% BSA, containing 2% PFA and incubation at 4° C. for 20 min. Thereafter, cells were washed once for 8 min at 400×g, 4° C. and finally re-suspended in 150 μl FACS buffer for the FACS measurement. Fluorescence was measured using BD FACS CantoII. Binding curves were obtained using GraphPadPrism6 (FIG. 20A).

human CEACAM6 = biological target: T3, human CEACAM6 (human, UniProt P40199 35-320); experiment: flow cytometry on transient HEK293T transfectants
T3 construct: whole, on cells
T3 sequence (looked up): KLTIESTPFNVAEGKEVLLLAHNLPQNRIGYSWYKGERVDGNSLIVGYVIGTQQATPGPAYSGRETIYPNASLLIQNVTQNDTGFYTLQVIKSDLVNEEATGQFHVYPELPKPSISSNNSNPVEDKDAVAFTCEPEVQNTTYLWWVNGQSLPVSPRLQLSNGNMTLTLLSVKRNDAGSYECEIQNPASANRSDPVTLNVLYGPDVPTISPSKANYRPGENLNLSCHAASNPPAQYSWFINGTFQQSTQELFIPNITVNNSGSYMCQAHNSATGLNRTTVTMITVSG
Protocol: as §3

B1: CEA CD3 TCB molecule X (TCB of similar structure as molecule B, based on a different humanized CEA binder not based on T84.66) (bispecific antibody)
chain 1: not shown
chain 2: QVQLVQSGAEVKKPGASVKVSCKASGYTFTEFGMNWVRQAPGQGLEWMGWINTKTGEATYVEEFKGRVTFTTDTSTSTAYMELRSLRSDDTAVYYCARWDFAYYVEAMDYWGQGTTVTVSSASTKGPSVFPLAPSSKSTSGGTAALGCLVKDYFPEPVTVSWNSGALTSGVHTFPAVLQSSGLYSLSSVVTVPSSSLGTQTYICNVNHKPSNTKVDKKVEPKSCDKTHTCPPCPAPEAAGGPSVFLFPPKPKDTLMISRTPEVTCVVVDVSHEDPEVKFNWYVDGVEVHNAKTKPREEQYNSTYRVVSVLTVLHQDWLNGKEYKCKVSNKALGAPIEKTISKAKGQPREPQVCTLPPSRDELTKNQVSLSCAVKGFYPSDIAVEWESNGQPENNYKTTPPVLDSDGSFFLVSKLTVDKSRWQQGNVFSCSVMHEALHNHYTQKSLSLSPGK
chain 3: QAVVTQEPSLTVSPGGTVTLTCGSSTGAVTTSNYANWVQEKPGQAFRGLIGGTNKRAPGTPARFSGSLLGGKAALTLSGAQPEDEAEYYCALWYSNLWVFGGGTKLTVLSSASTKGPSVFPLAPSSKSTSGGTAALGCLVKDYFPEPVTVSWNSGALTSGVHTFPAVLQSSGLYSLSSVVTVPSSSLGTQTYICNVNHKPSNTKVDKKVEPKSC
chain 4: DIQMTQSPSSLSASVGDRVTITCKASAAVGTYVAWYQQKPGKAPKLLIYSASYRKRGVPSRFSGSGSGTDFTLTISSLQPEDFATYYCHQYYTYPLFTFGQGTKLEIKRTVAAPSVFIFPPSDEQLKSGTASVVCLLNNFYPREAKVQWKVDNALQSGNSQESVTEQDSKDSTYSLSSTLTLSKADYEKHKVYACEVTHQGLSSPVTKSFNRGEC
- EC50 [1]: 11.7 nM
- EC50 [2]: 27.9 nM
- EC50 of T-cell mediated lysis of Kato III cells (LDH release, human PBMC, E:T 10:1), 48 h [3]: 8.23 nM

B2: Humanized variant 1 of T84.66 IgG (antibody, V domains shown)
VH: QVQLVQSGAEVKKPGSSVKVSCKASGFNIKDTYMHWVRQAPGQGLEWMGRIDPANGNSKYVPKFQGRVTITADTSTSTAYMELSSLRSEDTAVYYCAPFGYYVSDYAMAYWGQGTLVTVSS
VL: EIVLTQSPATLSLSPGERATLSCRAGESVDIFGVGFLHWYQQKPGQAPRLLIYRASNRATGIPARFSGSGSGTDFTLTISSLEPEDFAVYYCQQTNEDPYTFGQGTKLEIK
notes: Tested as IgG and detected with an anti-human IgG Fc secondary antibody
- EC50 [4]: 1.5 µg/mL

B3: CEA CD3 TCB molecule B, "2+1 IgG CrossFab, inverted" with charge modifications, humanized CEA binder (humanized variant 1) (bispecific antibody)
heavy 1: not shown
heavy 2: QVQLVQSGAEVKKPGSSVKVSCKASGFNIKDTYMHWVRQAPGQGLEWMGRIDPANGNSKYVPKFQGRVTITADTSTSTAYMELSSLRSEDTAVYYCAPFGYYVSDYAMAYWGQGTLVTVSSASTKGPSVFPLAPSSKSTSGGTAALGCLVEDYFPEPVTVSWNSGALTSGVHTFPAVLQSSGLYSLSSVVTVPSSSLGTQTYICNVNHKPSNTKVDEKVEPKSCDKTHTCPPCPAPEAAGGPSVFLFPPKPKDTLMISRTPEVTCVVVDVSHEDPEVKFNWYVDGVEVHNAKTKPREEQYNSTYRVVSVLTVLHQDWLNGKEYKCKVSNKALGAPIEKTISKAKGQPREPQVCTLPPSRDELTKNQVSLSCAVKGFYPSDIAVEWESNGQPENNYKTTPPVLDSDGSFFLVSKLTVDKSRWQQGNVFSCSVMHEALHNHYTQKSLSLSP
light 1: EIVLTQSPATLSLSPGERATLSCRAGESVDIFGVGFLHWYQQKPGQAPRLLIYRASNRATGIPARFSGSGSGTDFTLTISSLEPEDFAVYYCQQTNEDPYTFGQGTKLEIKRTVAAPSVFIFPPSDRKLKSGTASVVCLLNNFYPREAKVQWKVDNALQSGNSQESVTEQDSKDSTYSLSSTLTLSKADYEKHKVYACEVTHQGLSSPVTKSFNRGEC
light 2: EVQLLESGGGLVQPGGSLRLSCAASGFTFSTYAMNWVRQAPGKGLEWVSRIRSKYNNYATYYADSVKGRFTISRDDSKNTLYLQMNSLRAEDTAVYYCVRHGNFGNSYVSWFAYWGQGTLVTVSSASVAAPSVFIFPPSDEQLKSGTASVVCLLNNFYPREAKVQWKVDNALQSGNSQESVTEQDSKDSTYSLSSTLTLSKADYEKHKVYACEVTHQGLSSPVTKSFNRGEC
notes: The two copies of the CEA light chain follow from the 2+1 format and the 1:2:1:1 vector ratio; also called CEA CD3 TCB based on humanized variant 1
- binding result (human CEACAM1): no binding (tested: 30.5 pM-500 nM)
- binding result (human CEACAM6): no binding (tested: 30.5 pM-500 nM)
